Assay results: patent US11851498B2, “Anti-CD276 antibodies (B7H3)” (THE UNITED STATES OF AMERICA, as represented by THE …, priority 2014, dated 2023)
Like-named read-outs stand apart in the source and are kept apart here.

B1: m8524: anti-CD276 antibody clone, heavy chain comprising SEQ ID NO: 26 and light chain comprising SEQ ID NO: 27 (antibody, V domains shown)
VH: QVQLQQSGAEVKKPGSSVKVSCKASGGTFSSYAISWVRQAPGQGLEWMGGIIPILGIANYAQKFQGRVTITADESTSTAYMELSSLRSEDTAVYYCARGGSGSYHMDVWGKGTTVTVSS
VL: EIVLTQSPATLSLSPGERATLSCRASQSVSSYLAWYQQKPGQAPRLLIYDASNRATGIPARFSGSGSGTDFTLTISSLEPEDFAVYYCQQRSNWPPRITFGQGTRLEIK
B2: m8524-ADC: m8524 antibody conjugated to MMAE via a linking moiety; n is 2, 4, 6, or 8 (conjugate)
VH: B1 VH
VL: B1 VL

How the values were obtained:
[1] = test system: HEK 293 cells (293); assay: Cell viability of untransduced HEK 293 cells
Procedure: (§1) HEK 293 cells (293) or HEK 293 cells transduced with CD276 (293/CD276) were treated with MMAE alone, m8524 (m276) (SEQ ID NOs: 26 and 27) antibody alone, m825 (irrelevant control antibody)-ADC, or m8524-ADC. The drug of the ADCs was MMAE.

[2] = test system: human CD276-AP fusion protein; assay: ELISA binding assay, human CD276; details: scFv-Fc fusion protein in culture medium, serially diluted; CD276-AP coated at 2 μg/ml; FIG. 1A
Procedure: (§2) The scFv-encoding inserts of the unique clones were digested with SfiI and ligated into modified pSecTag bearing the same set of SfiI sites and Fc-Avi tag for soluble expression. These constructs were transfected into 293T cells for expression following the manufacturer's protocol. After 72 hr of growth, the scFv-Fc fusion proteins in the culture medium were used for the ELISA binding assay.
(§3) 50 μl of the diluted human (FIG. 1A) or mouse (FIG. 1B) CD276-AP fusion protein in PBS at 2 μg/ml was coated in a 96-well plate at 4° C. overnight. Transiently expressed scFv-Fc fusion protein in the culture medium was serially diluted and added into the target protein coated wells. After washing, a 1:3000 diluted horseradish peroxidase (HRP) conjugated goat anti-human IgG antibody was added for 1 hr at RT. After washing, 3, 3, 5, 5′-Tetramethylbenzidine (TMB) substrate was added, and the optical density (O.D.) was read at 450 nm.

[3] = target: T1, human CD276 expressed on the cell surface (CHO-huCD276) (Homo sapiens, UniProt Q5ZPR3); assay: Flow cytometry binding to CHO cells expressing human CD276; type: cell-based; details: scFv-Fc, 1 μg/100 μl, FIG. 4
T1 construct: expressed in transfected cells; host or cells: CHO cells
T1 sequence (Q5ZPR3 29-534): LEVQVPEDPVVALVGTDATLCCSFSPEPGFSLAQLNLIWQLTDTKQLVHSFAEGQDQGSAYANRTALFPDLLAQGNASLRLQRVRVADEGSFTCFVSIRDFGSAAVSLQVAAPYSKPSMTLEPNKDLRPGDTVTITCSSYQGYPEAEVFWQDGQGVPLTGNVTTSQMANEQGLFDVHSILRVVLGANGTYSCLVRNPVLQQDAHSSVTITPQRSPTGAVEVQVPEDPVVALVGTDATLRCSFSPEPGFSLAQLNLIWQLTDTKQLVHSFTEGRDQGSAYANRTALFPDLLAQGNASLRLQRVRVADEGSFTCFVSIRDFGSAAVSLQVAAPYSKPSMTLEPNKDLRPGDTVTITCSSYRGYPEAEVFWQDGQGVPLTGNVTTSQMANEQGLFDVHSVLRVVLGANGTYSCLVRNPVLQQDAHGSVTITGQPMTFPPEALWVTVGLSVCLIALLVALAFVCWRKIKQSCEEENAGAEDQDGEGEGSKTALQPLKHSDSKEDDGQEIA
Procedure: (§4) Chinese hamster ovary (CHO) cells were untransduced or transduced to express mouse CD276 or human CD276. The cells were cultured with 1 μg/100 μl of the anti-CD276 scFv-Fc m8524 (m276) (SEQ ID NOs: 26 and 27) (primary antibody) and fluorescein isothiocyanate (FITC) Gt anti-human antibody (H+L) (as a secondary antibody). The binding of the anti-CD276 scFv-Fc m8524 (m276) to mouse or human CD276 expressed on the cell surface was measured by flow cytometry.

[4] = target: T2, human CD276 Ecto-domain (Homo sapiens, UniProt Q5ZPR3); assay: Affinity determination by surface plasmon resonance (Biacore X100); type: binding; details: scFv m8524; immobilized human CD276 soluble extracellular domain; 1:1 Langmuir fit; 25° C; FIG. 2
T2 construct: The human CD276 soluble extracellular domain was covalently immobilized onto a sensor chip (CM5)
T2 sequence (Q5ZPR3 29-466 limits assumed): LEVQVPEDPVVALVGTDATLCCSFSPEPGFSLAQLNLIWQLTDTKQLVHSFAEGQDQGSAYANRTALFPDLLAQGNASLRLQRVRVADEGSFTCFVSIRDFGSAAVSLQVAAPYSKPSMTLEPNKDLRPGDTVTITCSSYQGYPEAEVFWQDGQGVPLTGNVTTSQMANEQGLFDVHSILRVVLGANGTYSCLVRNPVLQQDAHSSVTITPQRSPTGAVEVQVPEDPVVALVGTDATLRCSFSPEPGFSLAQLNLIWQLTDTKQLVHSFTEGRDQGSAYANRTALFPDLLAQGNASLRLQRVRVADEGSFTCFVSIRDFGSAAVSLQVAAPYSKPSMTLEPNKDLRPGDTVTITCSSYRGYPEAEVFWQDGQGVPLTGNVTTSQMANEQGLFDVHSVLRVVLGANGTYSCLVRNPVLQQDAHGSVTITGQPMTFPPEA
Procedure: Binding affinities of human anti-CD276 scFv m8524 to human CD276 Ecto-domain were analyzed by surface plasmon resonance technology using a Biacore X100 instrument (GE healthcare). The human CD276 soluble extracellular domain was covalently immobilized onto a sensor chip (CM5) using carbodiimide coupling chemistry. A control reference surface was prepared for nonspecific binding and refractive index changes. For analysis of the kinetics of interactions, varying concentrations of […] were injected at a flow rate of […] using running buffer containing 10 mM HEPES, 150 mM NaCl, 3 mM EDTA, and 0.05% Surfactant P-20 (pH 7.4). The association and dissociation phase data were fitted simultaneously to a 1:1 Langumir global model, using the nonlinear data analysis program BIAevaluation 3.2. All of the experiments were done at 25° C. The affinity of the antibody m8524 (m276) (comprising a heavy chain comprising SEQ ID NO: 26 and a light chain comprising SEQ ID NO: 27) is shown in FIG. 2.

[5] = test system: 293/CD276 cells; assay: Cell viability of HEK 293 cells transduced with CD276
Procedure: as §1

[6] = test system: mouse CD276-AP fusion protein; assay: ELISA binding assay, mouse CD276; details: scFv-Fc fusion protein in culture medium, serially diluted; CD276-AP coated at 2 μg/ml; FIG. 1B
Procedure: as §2, §3

[7] = target: T3, mouse CD276 expressed on the cell surface (CHO-msCD276) (Mus musculus, UniProt Q8VE98); assay: Flow cytometry binding to CHO cells expressing mouse CD276; type: cell-based; details: scFv-Fc, 1 μg/100 μl, FIG. 4
T3 construct: expressed in transfected cells; host or cells: CHO cells
T3 sequence (Q8VE98 29-316): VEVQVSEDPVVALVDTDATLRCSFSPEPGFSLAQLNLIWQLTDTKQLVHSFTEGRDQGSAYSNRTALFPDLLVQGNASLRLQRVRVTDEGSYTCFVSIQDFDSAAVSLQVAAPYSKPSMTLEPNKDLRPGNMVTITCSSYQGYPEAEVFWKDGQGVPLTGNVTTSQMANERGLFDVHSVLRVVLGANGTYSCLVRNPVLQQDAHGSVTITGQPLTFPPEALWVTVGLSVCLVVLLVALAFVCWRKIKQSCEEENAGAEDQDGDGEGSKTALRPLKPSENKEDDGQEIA
Procedure: as §4

[8] = test system: HCT116 cells; assay: In vitro cell viability, HCT116; type: cell-based, human; details: various concentrations (nM), FIG. 13
[9] = test system: HT29 human colorectal adenocarcinoma xenografts; assay: HT29 human colorectal adenocarcinoma xenografts in athymic nude mice; type: in vivo; details: 1, 3 or 10 mpk twice a week for three weeks; FIG. 10
Procedure: Athymic nude mice bearing HT29 human colorectal adenocarcinoma xenografts were treated with control (vehicle), m8524 (m276) (SEQ ID NOs: 26 and 27) alone (10 mg/kg (mpk)), or m8524 (m276)-MMAE ADCs at various dosages (1 mpk, 3 mpk, or 10 mpk) twice a week for three weeks. Tumor volume was measured at various time points after administration.

[10] = test system: KM12 human colon carcinoma xenografts; assay: KM12 human colon carcinoma xenografts in athymic nude mice; type: in vivo; details: 1, 3 or 10 mpk twice weekly for 3 weeks, 2 day break, FIG. 11
Procedure: Athymic nude mice bearing KM12 human colon carcinoma xenografts were treated with control (vehicle), m8524 (m276) (SEQ ID NOs: 26 and 27) alone (10 mg/kg (mpk)), or m8524 (m276)-MMAE ADCs at various dosages (1 mpk, 3 mpk, or 10 mpk) twice weekly for 3 weeks, followed by a 2 day break, followed by another dose twice weekly for 3 weeks. Tumor volume was measured at various time points after administration.

[11] = test system: MDA-MB231 human breast cancer cells (mammary fat pad); assay: MDA-MB231 human breast cancer orthotopic xenografts in athymic nude mice; type: in vivo; details: 1 mpk or 10 mpk twice weekly for 3 weeks; FIG. 16
Procedure: MDA-MB231 human breast cancer cells were implanted in the mammary fat pad of athymic nude mice (orthotopic model). Tumor-bearing mice were treated with control (vehicle), m8524 (m276) (SEQ ID NOs: 26 and 27) alone (10 mg/kg (mpk)), or m8524 (m276)-MMAE ADCs (at a dose of 1 mpk or 10 mpk) twice weekly for 3 weeks. Tumor volume was measured at various time points after administration.

[12] = test system: OVCAR3 human ovarian xenografts; assay: OVCAR3 human ovarian xenografts in SCID mice; type: in vivo; details: 1, 3 or 10 mpk on days 1, 4, 8 and 11; FIGS. 12 and 15
Procedure: SCID mice bearing OVCAR3 human ovarian xenografts were treated with control (vehicle), m8524 (m276) (SEQ ID NOs: 26 and 27) alone (10 mg/kg (mpk)), MMAE alone (0.2 mpk), or m8524 (m276)-MMAE ADCs at various dosages (1 mpk, 3 mpk, or 10 mpk) on days 1, 4, 8 and 11. Tumor volume was measured at various time points after administration. The results are shown in FIG. 12 (up to Day 11) and FIG. 15 (up to Day 53).

[13] = test system: HT29 cells; assay: In vitro cell viability, HT29; type: cell-based, human; details: various concentrations (nM), FIG. 13
[14] = test system: HCT-116 human colon cancer xenografts; assay: HCT-116 human colon cancer xenografts in athymic nude mice; type: in vivo; details: 1, 3, 10 or 30 mpk twice a week for three weeks; FIGS. 8 and 9
Procedure: Athymic nude mice bearing HCT-116 human colon cancer xenografts were treated with control (vehicle), m8524 (m276) (SEQ ID NOs: 26 and 27) alone (30 mg/kg (mpk)), or m8524 (m276)-MMAE ADCs at various dosages (1 mpk, 3 mpk, 10 mpk, or 30 mpk) twice a week for three weeks. Tumor volume was measured at various time points after administration.

[15] = test system: OVCAR3 cells; assay: In vitro cell viability, OVCAR3; type: cell-based, human; details: various concentrations (nM), FIG. 13

| Molecule | cytotoxicity (cell viability, % of control) [1] | binding to human CD276 (OD at 450 nm, ELISA) [2] | binding to human CD276 expressed on the cell surface (flow cytometry) [3] | Kd [4] | cytotoxicity (cell viability, % of control) [5] | binding to mouse CD276 (OD at 450 nm, ELISA) [6] | binding to mouse CD276 expressed on the cell surface (flow cytometry) [7] | cytotoxicity (cell viability, % of control) ([1]; 293 cells (low CD276), various concentrations (nM), FIG. 7) | cell viability [8] | tumor volume as compared to control or m8524 (m276) alone [9] | tumor volume as compared to control or m8524 (m276) alone [10] | tumor volume as compared to control or m8524 (m276) alone [11] | tumor volume as compared to control, MMAE alone, or m8524 (m276) alone [12] | cell viability [13] | tumor volume as compared to control or m8524 (m276) alone [14] | cell viability [15] | cytotoxicity (cell viability, % of control) ([5]; 293/CD276 cells (high CD276), various concentrations (nM), FIG. 7) | selectivity for CD276-expressing cells ([5]; 293/CD276 versus 293 cells, FIG. 7) |
| --- | --- | --- | --- | --- | --- | --- | --- | --- | --- | --- | --- | --- | --- | --- | --- | --- | --- | --- |
| B1 | resistant to killing | bound | bound | 0.049 nM | resistant to killing | bound | bound |  |  |  |  |  |  |  |  |  |  |  |
| B2 |  |  |  |  |  |  |  | selectively cytotoxic | decreased | decreased | decreased | decreased | decreased | decreased | decreased | decreased | selectively cytotoxic | toxicity corresponding to CD276 expression levels |
